Data published in article PMC3751045.

Tests used:
Assay in all cases: purified protein
Details in all cases: 160 μM NADPH, pH 6.5 phosphate, 40°C, GST fusion
[1] = substrate: O=C[C@@H](O)CO
[2] = substrate: O=C[C@@H](O)[C@H](O)CO
[3] = substrate: CC(=O)C=O
[4] = substrate: O=CC=O

B1: Err1 from T. reesei (GLD1) (Trichoderma reesei) (protein)
chain: MSSGRTVTLNTGYKIPQIGYGTWQAAPGEVGAGVFEALKVGYRHLDLAKVYGNQKEVGEGIKKALAEVPGLKREDIFITSKLWNNSHKPEDVEPALDDTLAELGLDYLDLYLIHWPVAFAPGADLFPKSEDGSEVQLNQNVSIVQTWKAMTELPKSKVRSVGVSNFTIEHLDAVIEATGVVPAVNQIERHPRLPNQPLIDYCAKKGIIITAYSAFGNNTKGLPLLVSSDEVKAVADNLSKKQGKTVTPAQVILAWSQIGGHTVIPKSVTKARIAENFQEVELDDEAIAALNKLGEKPQRFNIPYTYKPRWNINLFNTEEEKAAAHTAVIKL
[1]
  Km: 158.04 ± 5.00 µM
  kcat: 47.9 s⁻¹
  kcat/Km: 303000 M⁻¹ s⁻¹
[2]
  Km: 94.07 ± 2.46 µM
  kcat: 29 s⁻¹
  kcat/Km: 309000 M⁻¹ s⁻¹
[3]
  Km: 131.86 ± 1.84 µM
  kcat: 72.6 s⁻¹
  kcat/Km: 550000 M⁻¹ s⁻¹
[4]
  Km: 102.74 ± 9.76 µM
  kcat: 18.8 s⁻¹
  kcat/Km: 183000 M⁻¹ s⁻¹
